Source: US11155602B2, “Polypeptides targeting HIV fusion” (priority 2015, dated 2021)

System: NL-Rluc virus
Experiment: Combinectin potency assay: antiviral EC50, NL-Rluc virus in MT-2 cells, luciferase readout
Format: cell-based, HIV-1
Settings: Anti-N17 Adnectin, Table 3
Description: MT-2 cells, HEK 293T cells and the proviral DNA clone of […] were obtained from the NIH AIDS Research and Reference Reagent Program. MT-2 cells were propagated in RPMI 1640 medium supplemented with 10% heat-inactivated fetal bovine serum (FBS), 10 mM HEPES buffer pH 7.55, and 2 mM L-glutamine. HEK 293T cells were propagated in DMEM media supplemented with 10% heat-inactivated FBS, 10 mM HEPES buffer pH 7.55 and 2 mM L-glutamine. Recombinant NL-Rluc virus, in which a section of the nef gene from the proviral clone of NL4-3 was replaced with the Renilla luciferase gene, was constructed at Bristol-Myers Squibb. The replication-competent virus was harvested 3 days after transfection of HEK 293T cells with the modified pNL-Rluc proviral clone. Transfections were performed using Lipofectamine Plus (Invitrogen, Carlsbad, Calif.), according to manufacturer's instruction. Virus was titered in MT-2 cells using luciferase enzyme activity as a biomarker. The NL-Rluc virus used to infect MT-2 cells a multiplicity of 0.01 for 1 hour before adding to the peptides in 96-well plates. Peptides were serially diluted three-fold and 11 concentrations were plated in triplicate. After 4-5 days of incubation, cells were processed and quantitated for virus growth by the amount of expressed luciferase. Luciferase was quantitated using the Dual Luciferase kit from Promega (Madison, Wis.), with modifications to the manufacturer's protocol. The diluted Passive Lysis solution was pre-mixed with the re-suspended Luciferase Assay Reagent and then re-suspended in STOP & GLO® Substrate (2:1:1 ratio). A total of […] of the mixture was added to each aspirated well on assay plates and luciferase activity was measured immediately on a Wallac TriLux (Perkin-Elmer, Waltham, Mass.). The 50% effective concentration (EC50) was calculated by comparing the amount of luciferase produced in the presence of inhibitory peptide compared to wells where no peptide was added.

Row | Molecule | EC50
1 | 161 (protein, Adnectin) MGHHHHHHGGSVSDVPRDLEVVAATPTSLLISWEYKVHPYRYYRITYGETGGNSPVQEFTVPSVLSSAEISGLKPGVDYTITVYAVTYGDDSAPISINYRTEID | 13 nM
2 | 162 (protein, Adnectin) MGHHHHHHGGSVSDVPRDLEVVAATPTSLLISWEYKVHPYRYYRITYGETGGNSPVQEFTVPSVLSSAQISGLKPGVDYTITVYAVTYGDDSAPISINYRTEID | 35 nM
3 | 163 (protein, Adnectin) MGHHHHHHGGSVSDVPRYLEVVAATPTSLLISWQYKVHPYRWYRITYGETGGNSPVQEFTVPSVLSTATISGLKPGVDYTITVYAVTYGVNSIPISINYRTEID | 35 nM
4 | 164 (protein, Adnectin) MGHHHHHHGGSVSDVPRDLEVVAATPTSLLISWKYQVHAYRYYRITYGETGGNSPVQEFTVPSVLSTATISGLKPGVDYTITVYAVTYGVYSAPISINYRTEID | 35 nM
5 | 165 (protein, Adnectin) MGHHHHHHGGSVSDVPRDLEVVAATPTSLLISWEYKVNPYRYYRITYGETGGNSPVQEFTVPSVLSTATISGLKPGVDYTITVYAVTYGVHSSPISINYRTEID | 42 nM
6 | 166 (protein, Adnectin) MGHHHHHHGGSVSDVPRDLEVVAATPTSLLISWKYNLHPYRYYRITYGETGGNSPVQEFTVPSVLSTATISGLKPGVDYTITVYAVTYGIISEPISINYRTEID | 50 nM
7 | 167 (protein, Adnectin) MGHHHHHHGGSVSDVPRDLEVVAATPTSLLISWEYRVNPYRYYRITYGETGGNSPVQEFTVPSVLSTATISGLKPGVDYTITVYAVTYGVQSPPISINYRTEID | 42 nM
8 | 168 (protein, Adnectin) MGHHHHHHGGSVSDVPRDLEVVAATPTSLLISWEYKVNAYRYYRITYGETGGNSPVQEFTVPSVLSTATISGLKPGVDYTITVYAVTYGVLSPPISINYRTEID | 42 nM
9 | 169 (protein, Adnectin) MGHHHHHHGGSVSDVPRDLEVVAATPTSLLISWEYNVNPYRYYRITYGETGGNSPVQEFTVPSVLSTATISGLKPGVDYTITVYAVTRGVDSAPISINYRTEID | 5 nM
10 | 170 (protein, Adnectin) MGHHHHHHGGSVSDVPRDLEVVAATPTSLLISWEYKVSPYRYYRITYGETGGNSPVQEFTVPSVLSTATISGLKPGVDYTITVYAVTFGIRSSPISINYRTEID | 5 nM
11 | 119 (protein, Adnectin) MGVSDVPRDLEVVAATPTSLLISWDAPAVTVGWYHIGYNVEGEPASYQYFRVPGSKSTATISGLKPGVEYMIFVNAVTGSGAREEFSLPISINYRTEGSGSHHHHHH | > 1000 nM
12 | 171 (protein, Adnectin) MGHHHHHHGGSVSDVPRDLEVVAATPTSLLISWKYQVHAYRYYRITYGETGGNSPVQEFTVPSVLSTATISGLKPGVDYTITVYAVTYGIISEPISINYRTEID | 35 nM
13 | 172 (protein, Adnectin) MGHHHHHHGGSVSDVPRDLEVVAATPTSLLISWEYKVDPYRYYRITYGETGGNSPVQEFTVPSVLSTATISGLKPGVDYTITVYAVTYGIDSSPISINYRTEID | 5 nM
14 | 173 (protein, Adnectin) MGHHHHHHGGAVSDVPRDLEVVAATPTSLLISWEYKVNPWRYYRITYGETGGNSPVQEFTVPSVLSTATISGLKPGVDYTITVYAVTYGVHSSPISINYRTEID | 5 nM
